This assay concerns the target cholesterol ester hydrolase (CEH).

The values below come from US20100272817A1.

Square brackets hold non-standard residues; d marks the D form. Ends that are not written are not given here.

B1: retro-inversal D amino acid peptide … (D-form; SEQ ID NO:3) (peptide)
peptide: [dR][dF][dH][dN][dP][dD][dK]G[dS][dR]G[dW][dE][dN][dA][dA][dQ][dD][dA]
modifications: also: retro-inverso peptide
B1 registered an in vivo macrophage cholesterol export ([3H]-cholesterol in plasma 5 hours after peptide injection) of 2.5 fold.
